Substrate in data set [1]: CC1(C)CNc2nc(N)[nH]c(=O)c2N1
Nature of the data set: Phenylalanine hydroxylase cofactor assay (cofactor consumption and tyrosine formation). The format is biochemical, Rat. The settings on record: other: 1 mM phenylalanine, atmospheric oxygen, 0.1 M Tris·HCl, pH 7.4, 27°C. How it is done: (§1) The 6,6-dimethyl substituted tetrahydropterin was tested for cofactor activity in a standard phenylalanine hydroxylase assay in which both cofactor consumption and tyrosine formation were monitored. […] An apparent Michaelis constant was determined at 1 mM phenylalanine and atmospheric oxygen with concentrations of 6,6-Me₂PH₄ ranging from 0.02-0.3 mM. The effect of a second methyl at the 6-position slightly increases the affinity for phenylalanine hydroxylase, since the apparent Km was two-thirds to three-quarters that of 6-methyl and 6,7-dimethyltetrahydropterin (Table IV). […] The maximum velocity of the reaction with 6,6-Me₂PH₄ is similar to that with the 6,7-dimethyl compound and about 6 times slower than with the natural cofactor (Table IV).

Substrate in data set [2]: CC1CNc2nc(N)[nH]c(=O)c2N1
Described as above. The format is biochemical, Rat. The settings on record: other: 1 mM phenylalanine, atmospheric oxygen, 0.1 M Tris·HCl, pH 7.4, 27°C. Here is the method: as §1

Substrate in data set [3]: CC1=Nc2c(O)nc(N)nc2NC1
The experiment in a line: Quinoid dihydropterin as substrate for dihydropteridine reductase (beef liver). The settings on record: other: substrate produced by Peroxidase + H2O2; pH 7.4; 27.0 °C. In kind it is biochemical.

Substrate in data set [4]: CC1(C)CNC2=NC(N)=NC(=O)C2=N1
The description is as above. The format is biochemical.

Substrate in data set [5]: CC1(c2ccccc2)CNC2=NC(N)=NC(=O)C2=N1
The data set is described as above. The format is biochemical. The settings on record: other: substrate produced by Peroxidase + H2O2; pH 7.4; 27.0 °C.

Substrate in data set [6]: CC1(C)CNC2=NC(N)=NC(=O)C2=N1
Nature of the data set: Quinoid dihydropterin as substrate for dihydropteridine reductase (sheep liver). In kind it is biochemical. How it is done:
The quinoid was generated from 6,6-Me₂PH₄, as outlined previously. […] Peroxidase (6 units/ml final volume) was temperature equilibrated in 0.1 M Tris·HCl, pH 7.4, at 27° for 5 minutes. H₂O₂ (1.2 mM final concentration) was then added, followed by 6,6-Me₂PH₄. Conversion to q-6,6-Me₂PH₂, monitored at 340 nm, was complete within a few seconds. • (iii) Generation by phenylalanine hydroxylase: […] At 5 minutes, 6,6-Me₂PH₄ was introduced and monitored at 340 nm. Conversion of 6,6-Me₂PH₄ to quinoid dihydropterin was complete in 1-7 minutes, depending on the concentration. […] Reaction was then initiated with dihydropteridine reductase (0.01 units/ml). Rates were calculated from the enzyme dependent decrease in O.D. at 340 nm, using an extinction coefficient of 9.8 for the chemically synthesized substrate and 6.2 for the peroxidase- and phenylalanine-hydroxylase-containing reactions in which the pterin is maintained in the quinoid form. […] This Km was obtained regardless of the method of generation of the quinoid dihydropterin. The Vmax's were also the same for the dihydropteridine reductase catalyzed reduction of quinoid generated by any of the three methods (Table VI). Thus, the quinoid products of each procedure appear to behave equally.

Where [7] appears, read: other: substrate produced by Bromine oxidation, 0.1 M Tris·HCl, pH 7.4, 27°C.
The mark [8] stands for this setting: other: substrate produced by Phe hydroxylase + phe, pH 7.4, 27.0 °C.

B1: Rat Liver Phenylalanine Hydroxylase (Rattus norvegicus) (protein)
chain: MAAVVLENGVLSRKLSDFGQETSYIEDNSNQNGAISLIFSLKEEVGALAKVLRLFEENDINLTHIESRPSRLNKDEYEFFTYLDKRTKPVLGSIIKSLRNDIGATVHELSRDKEKNTVPWFPRTIQELDRFANQILSYGAELDADHPGFKDPVYRARRKQFADIAYNYRHGQPIPRVEYTEEEKQTWGTVFRTLKALYKTHACYEHNHIFPLLEKYCGFREDNIPQLEDVSQFLQTCTGFRLRPVAGLLSSRDFLGGLAFRVFHCTQYIRHGSKPMYTPEPDICHELLGHVPLFSDRSFAQFSQEIGLASLGAPDEYIEKLATIYWFTVEFGLCKEGDSIKAYGAGLLSSFGELQYCLSDKPKLLPLELEKTACQEYSVTEFQPLYYVAESFSDAKEKVRTFAATIPRPFSVRYDPYTQRVEVLDNTQQLKILADSINSEVGILCNALQKIKS
notes: Cofactor for Rat Liver Phenylalanine Hydroxylase; from tissue; host or cells: rat liver
What is called Km is the concentration of substrate that gives half-maximal velocity. Consider B1, for which the results for the Km in data set [1] and in data set [2] were 66 ± 10 µM and 100 ± 20 µM, respectively.

B2: Beef Liver Dihydropteridine Reductase (Bos taurus) (protein)
chain: MAAAAGEARRVLVYGGRGALGSRCVQAFRARNWWVASIDVQENEEASANVVVKMTDSFTEQADQVTAEVGKLLGTEKVDAILCVAGGWAGGNAKSKSLFKNCDLMWKQSVWTSTISSHLATKHLKEGGLLTLAGARAALDGTPGMIGYGMAKAAVHQLCQSLAGKSSGLPPGAAAVALLPVTLDTPVNRKSMPEADFSSWTPLEFLVETFHDWITEKNRPSSGSLIQVVTTEGKTELTAASP
notes: from tissue; host or cells: beef liver
For the protein B2, the Michaelis constant (Km) is 30 µM in data set [3]; 400 µM in data set [4] (setting [7]); 400 µM in data set [4] (other: substrate produced by Peroxidase + H2O2, pH 7.4, 27.0 °C); 400 µM in data set [4] (setting [8]); 70 µM in data set [5].

B3: Sheep Liver Dihydropteridine Reductase (Ovis aries) (protein)
chain: WVASIDVQENEEASANVVVKMTDSFTEQADQVTAEVGELLGTEKVDAILCVAGGWAGGNAKSKSLFKNCDLMWKQSVWTSTISSHLATKHLKEGGLLTLAGARAALDGTPGMIGYGMAKAAVHQLCRSLAGKNSGLPPGAAAVALLPVTLDTPVNRKSMPEADFSSWTPLEFLVETFHDWITEKNRPSSGSLIQVVTTEGKTELTTASL
As to B3, the Km in data set [6] (setting [7]) and in data set [6] (setting [8]) was 400 µM throughout.
